B1: S1R3A1_BMV_1F3 (scFv, V domains shown)
VH: EVQLVESGEGLVKPGGSLRLSCTASGFTFRSYSLNWVRQAPGQGLEWVSSISSTSTYIYYADSVKGRFTISRDDAKNTLYLQMNSLRAEDTAAYYCVRLGSGGGYFPDYWGRGTLVTVSS
VL: SSELTQDPAVSVALGQTVRITCQGDSLRSYYASWYQQKPGQAPVLVIYGKNNRPSGIPDRFSGSSSGNTASLTITGAQAEDEADYYCNSRDSSGNHVVFGGGTKLTVL
notes: scFv, soluble from bacterial periplasm in the screen; also called Her2_S1R3A1_BMV_1F3
B2: S1R3B1_BMV_1H9 (scFv, V domains shown)
VH: QVQLQESGAGLVKPSGTLSLTCAVSGGSISSGNWWSWVRQPPGKGLEWIGEISHSGSTNYNPSLKSRVTISVDKSKNQFSLNLSSVTAADTAVYYCARVRGTVGDTRGPDYWGQGTLVTVSS
VL: B1 VL
notes: scFv, soluble from bacterial periplasm in the screen; also called Her2_S1R3B1_BMV_1H9
B3: S1R3B1_BMV_1H5 (scFv, V domains shown)
VH: QVQLQESGGGVVQPGGSLRLSCAASGFTFSGYGMHWVRQAPGKGLEWVASVRNDGSNTYYTDSVKDRFTISRDNTKNTLYLQMNSLRAEDTAVYYCAKSRRVMYGTSYYFDYWGRGTLVTVSS
VL: B1 VL
notes: scFv, soluble from bacterial periplasm in the screen; also called Her2_S1R3B1_BMV_1H5
B4: S1R3C1_CS_1D3 (scFv, V domains shown)
VH: QVQLQESGPGLVKPSQTLSLTCGISGDSVSSNSAAWNWIRQSPTRGLEWLGRTYYRSSWYHNYAPSMNSRLTIIADTSKNQFSLQLNSVTPEDTAVYYCASGWAFDVWGRGTLVTVSS
VL: QSVLTQPPSASGSPGQSVTISCTGTSSDVGAYDFVSWYQQHPGKAPKLMIYEVNKRPSGVPDRFSGSKSGNTASLTVSGLQAEDEADYYCSSYAGSKNLLFGGGTKLTVL
notes: scFv, on phage in the screen; also called Her2_S1R3C1_CS_1D3
B5: S1R3B2_BMV_1G2 (scFv, V domains shown)
VH: QVQLVQSGAEVKKPGSSVKVSCKASGYTFTSYGISWVRQAPGQGLEWMGWISAYNGNTNYAQKLQGRVTMTTDTSTSTAYMELRSLRSDDTAVYYCARVPGVSGSYPDYYYMDVWGKGTLVTVSS
VL: DIQMTQSPSTLSASIGDRVTITCRASEGIYHWLAWYQQKPGKAPKLLIYKASSLASGAPSRFSGSGSGTDFTLTISSLQPDDFATYYCQQYSNYPLTFGGGTKLEIK
notes: scFv, on phage in the screen; also called Her2_S1R3B2_BMV_1G2
B6: S1R3B1_BMV_1A1 (scFv, V domains shown)
VH: EVQLVQSGAEVKEPGASVKVSCKASGYDFSNYGFSWVRQAPGQGLEWMGWISSYNGYTNYAQRLQGRVTMTTDTSTSTAYMELRSLRSDDTAVYYCARDRGLGNWYFDLWGQGTLVTVSS
VL: QSVLTQPASVSGSPGQSITISCTGTSSDVGGYNYVSWYQQHPGKAPKLMIYEGSKRPSGVSNRFSGSKSGNTASLTISGLQAEDEADYYCSSYTTRSTRVFGGGTKLTVL
notes: scFv, soluble from bacterial periplasm in the screen; also called Her2_S1R3B1_BMV_1A1
B7: S1R3B1_BMV_1G11 (scFv, V domains shown)
VH: QVQLVQSGGGLVQPGGSLRLSCAASGFTFSTYAMSWARQAPGKGLEWVSSISGDGGRILDADSAKGRFTISRDNSKNTLYLQMNGLRVEDTALYYCARADGNYWGRGTMVTVSS
VL: B6 VL
notes: scFv, soluble from bacterial periplasm in the screen; also called Her2_S1R3B1_BMV_1G11
B8: S1R3A1_DP47_1A6 (scFv, V domains shown)
VH: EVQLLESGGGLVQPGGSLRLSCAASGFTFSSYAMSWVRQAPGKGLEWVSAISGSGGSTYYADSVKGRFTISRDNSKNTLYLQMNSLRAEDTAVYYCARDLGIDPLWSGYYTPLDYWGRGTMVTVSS
VL: HVILTQPPSASGTPGQRVTISCSGSSSNIGSNSVSWYQQLPGTAPKLLMYTNNQRPSGVPDRFSGSKSGTSASLAISGLQSEDEADYYCATWDASLNTWVFGGGTKVTVL
notes: scFv, soluble from bacterial periplasm in the screen; also called Her2_S1R3A1_DP47_1A6

What was measured:
L1-CR1 (Her054P) = molecular target: T1, L1-CR1 (Her054P); assay: ELISA, soluble scFv on L1-CR1
T1 construct: also called 1.0
T1 chain: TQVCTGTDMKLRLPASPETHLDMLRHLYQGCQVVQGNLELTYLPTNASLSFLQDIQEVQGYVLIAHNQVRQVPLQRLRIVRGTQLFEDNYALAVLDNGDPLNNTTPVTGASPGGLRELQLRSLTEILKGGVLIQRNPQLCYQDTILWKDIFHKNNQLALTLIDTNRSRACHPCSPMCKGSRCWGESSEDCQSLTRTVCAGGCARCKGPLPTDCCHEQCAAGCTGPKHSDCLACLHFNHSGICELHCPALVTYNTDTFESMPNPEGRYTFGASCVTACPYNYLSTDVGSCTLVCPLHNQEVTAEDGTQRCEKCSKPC
Description: (§1) Various Her2-Fc proteins (e.g., Her008P, Her017P, Her018P, etc.) or a negative control murine IgG2a protein were coated overnight at 4° C. on 96-well Nunc Maxisorp at a concentration of 1 ug/ml in PBS. Alternatively, pre-blocked streptavidin-coated plates (Greiner) were coated with biotinylated Her2-Fc proteins for 1 hour at room temperature at a concentration of 1 ug/ml in block buffer (3% skim milk/1% BSA/PBS). Plates were washed three times using PBS and blocked for 1 hour at room temperature in 3% skim milk/1% BSA/PBS. Phage or peripreps were prepared as described above and were blocked for 1 hour at room temperature in an equal volume of 6% skim milk/1% BSA/PBS. Blocked plates were washed five times with PBS and 50 μl/well of blocked phage or periprep were transferred to the appropriate plates and incubated for 1 hour at room temperature. […] Plates were incubated for a further hour at room temperature and washed seven times with PBS. Signal was developed using TMB, the reaction stopped with H₂SO₄ and the absorbance read at 450 nm on an Envision plate reader (Perkin Elmer).

[1] = molecular target: T2, Her008P, full-length extracellular domain (ECD) of Her2 expressed with a mIgG2a Fc tail (human; murine, UniProt P04626 23-652); assay: ELISA, soluble scFv on ECD
T2 construct: also called SIIS; SIIS (Dimer); not shown: murine IgG2a Fc tail

[2] = molecular target: T3, Her018P, Her2 ECD with a deletion in the CR2 (Domain IV) region expressed with a mIgG2a Fc tail (human; murine, UniProt P04626 23-599); assay: ELISA, soluble scFv on Her018
T3 construct: Shares the name HER018 with the trastuzumab SMIP; also called 1.8 (Dimer); dimeric HER018; not shown: murine IgG2a Fc tail (C-terminal dimerising carrier) and any junction residues

ECD region of Her2 [3] = molecular target: T4, ECD region of Her2 (human, UniProt P04626 23-652); assay: screening after three rounds of phage selection, soluble periplasmic scFv
T4 construct: extracellular domain; Generic target of the scFv screen; also called extracellular domain (ECD) of Her2 (ErbB2)

EQR (Her017P) = molecular target: T5, EQR (Her017P); assay: ELISA, soluble scFv on EQR
T5 construct: also called HER2 EQR-Fc; HER2 EQR DIMER
Description: as §1

ECD region of Her2 [4] = molecular target: T4, ECD region of Her2; assay: cell ELISA, phage scFv, CHO-ECD cells
Description: 2×10⁴ CHOK1 cells/well were seeded in a 96-well tissue culture plate on Day 1 and incubated at 37° C./5% CO₂ for 2-4 days until a confluent monolayer was observed. Cells were washed five times with PBS (+ Ca/Mg ions) and blocked for 1 hour at room temperature with 3% skim milk/1% BSA/PBS (+ Ca/Mg ions). Phage or peripreps were prepared as described above and were blocked for 1 hour at room temperature in an equal volume of 6% skim milk/1% BSA/PBS (+ Ca/Mg ions). Blocked plates were washed five times with PBS (+ Ca/Mg ions) and 50 μl/well of blocked phage or periprep were transferred to the appropriate plates and incubated for 1 hour at room temperature. […] Plates were incubated for a further hour at room temperature and washed ten times with PBS (+ Ca/Mg ions). Signal was developed using TMB, the reaction stopped with H₂SO₄ and the absorbance read at 450 nm on an ENVISION plate reader (Perkin Elmer).

Full length HER2 = molecular target: T6, Full length HER2 (human, UniProt P04626 23-1255); assay: cell ELISA, phage scFv, SKBR3 cells
T6 construct: Endogenous HER2 on SKBR3, BT474, 22rv1, MDA-MB-175, MDA-MB-453 and MDA-MB-361 cells; also called HER2 on the cell surface; ErbB2

Binder	binding result (L1-CR1 (Her054P))	binding result [1]	binding result [2]	binding result (ECD region of Her2 [3])	binding result (EQR (Her017P))	binding result (ECD region of Her2 [4])	binding result (Full length HER2)
B1	no binding	binds	binds	binds	binds	–	–
B2	no binding	binds	no binding	binds	no binding	–	–
B3	no binding	binds	no binding	binds	no binding	–	–
B4	no binding	binds	no binding	–	binds	binds	binds
B5	no binding	binds	binds	–	binds	binds	binds
B6	no binding	binds	no binding	binds	binds	–	–
B7	no binding	binds	no binding	binds	no binding	–	–
B8	no binding	binds	binds	binds	binds	–	–
